Here are results for four molecules from patent US20120270297A1, “CULTURING AND GENETIC MANIPULATIONS OF THERMOTOGA SPP” (BOWLING GREEN STATE UNIVERSITY, priority 2011, published 2012).

Where two headings read alike, the source gives them in different places.

Series [1] has as its system T. maritima. The series is described as follows: Selective levels of kanamycin in liquid and solid SVO media. In kind it is cell-based, Thermotoga maritima. The following applies: liquid SVO. How it is done:
(§1) One ml of overnight culture was mixed with 25 ml of hot SVO containing 0.3% GELRITE and poured to Petri dishes. Small discs of 7 mm in diameter were cut from Whatman qualitative filter paper and were placed on solidified plates. Various amount of kanamycin (50˜250 μg) was added to the paper discs. After 48 h of anaerobic incubation, sensitive strains would display inhibition zones surrounding the discs. To specify the selective levels of the antibiotic in both liquid and solid media, kanamycin ranging from 50 to 300 μg ml^−1 was supplemented, and the proliferation of bacteria was monitored for up to 72 h.
(§2) We next specified the selective levels of kanamycin in both liquid and solid media. […] However, spontaneous mutations sometimes caused the cultures to become resistant to the antibiotic, and a complete inhibition over a period of 72 h was only possible when the input amount was increased to 150 μg ml^−1. Similar phenomena were also noticed with T. sp. RQ7. On SVO plates, spontaneous mutants of T. maritima and T. sp. […] Based on these observations, for the rest of the study, kanamycin was added at 150 μg ml^−1 to liquid media and at 250 μg ml^−1 to soft and solid media.

The subject of series [2] is T. sp. RQ7. The description is as above. It is filed as cell-based, Thermotoga sp. RQ7. Conditions: SVO plates, 48 h of incubation. As to the method: as §1, §2
For series [3] the following is noted: crude yeast extract, 37° C., cited from earlier work.
Series [4] deals with pUC19 DNA. The series is described as follows: Restriction assay of heat-purified cell extracts containing the REase. In kind it is biochemical. The following applies: for restriction activity retained on storage: heat-purified extract stored at 4° C. How it is done: One gram of E. coli wet cells grown at 37° C., containing pJC339 or pJC340 or both, were resuspended in 3 ml lysis buffer (10 mM Tris-HCl, 10 mM MgCl2, 50 mM NaCl, 1 mM DTT, pH 8.0) and were lysed with two passages through a French press at 14,000 pounds per square inch. After centrifugation at 27 k×g for 25 min, the supernatant was transferred to a new tube and heated at 77° C. for 1 h to denature most of the host proteins, followed by another round of centrifugation at 17 k×g for 15 min. The supernatant containing purified Thermotoga proteins was stored at 4° C. Such extracts retained 100% of the restriction activity for up to 5 weeks, and ≧50% of the activity for at least 12 weeks. For expression analysis, heat-purified cell extracts were mixed with loading buffer and were subjected to sodium dodecyl sulfate-polyacrylamide gel electrophoresis (SDS-PAGE) in 15% (w/v) gels. HisDetector Western Blot Kit (Kirkegaard & Perry Laboratories, Inc., Maryland, USA) was used for colorimetric immunodetection of histidine-tagged CTN—0339 protein. For restriction assays, heat-purified cell extracts containing the REase were serially diluted in 2-fold steps with the lysis buffer and were incubated with 5 μg of substrate DNA in a reaction volume of 50 μl. After 1 h of incubation at 50° C., 65° C., or 77° C., the reaction was terminated with 5 μl of stopping buffer (50 mM EDTA, 50% (w/v) glycerol, 0.02% (w/v) bromophenol blue, pH 8.0). Digested DNA fragments were resolved on 1% (w/v) agarose gels. One unit of the REase activity is defined as the quantity required to completely digest 1 μg of pUC19 DNA in 1 h at 77° C. For modification assays, heat-purified cell extracts containing the MTase were serially diluted in 2-fold steps with the lysis buffer and were incubated with 5 μg of substrate DNA in a total volume of 50 μl. After 1 h of incubation at 77° C., the reaction mix was then incubated with 0.5 U of the REase at 77° C. for overnight. One unit of the MTase activity is defined as the quantity required to completely protect 1 μg of pUC19 DNA from the cleavage of the REase for 1 h at 77° C.
The PCR product of CTN—0339 was completely digested by heat-purified REase. Two fragments were generated and were retrieved from agarose gels. The smaller piece was directly analyzed by Sanger sequencing; the larger piece was further digested by NdeI and was inserted into pUC19 at the NdeI-SmaI sites to form pDH22. The insertion region of the constructed vector was sequenced.
To provide further evidence to the functions of the two Thermotoga proteins, we first tested the restriction activity of CTN—0339 at 50° C., 65° C., and 77° C. using pUC19 plasmid DNA prepared from strain XL1-Blue MRF′. […] (FIG. 3). […] (FIG. 3). […]

The subject of series [5] is pUC19 DNA. The experiment in a line: Modification assay: protection of pUC19 DNA from the REase by CTN_0340 extract. The following applies: 10 μl extract, 77° C. 1 h, then REase overnight at 77° C. It is filed as biochemical. As to the method: One gram of E. coli wet cells grown at 37° C., containing pJC339 or pJC340 or both, were resuspended in 3 ml lysis buffer (10 mM Tris-HCl, 10 mM MgCl2, 50 mM NaCl, 1 mM DTT, pH 8.0) and were lysed with two passages through a French press at 14,000 pounds per square inch. After centrifugation at 27 k×g for 25 min, the supernatant was transferred to a new tube and heated at 77° C. for 1 h to denature most of the host proteins, followed by another round of centrifugation at 17 k×g for 15 min. The supernatant containing purified Thermotoga proteins was stored at 4° C. Such extracts retained 100% of the restriction activity for up to 5 weeks, and ≧50% of the activity for at least 12 weeks. For expression analysis, heat-purified cell extracts were mixed with loading buffer and were subjected to sodium dodecyl sulfate-polyacrylamide gel electrophoresis (SDS-PAGE) in 15% (w/v) gels. HisDetector Western Blot Kit (Kirkegaard & Perry Laboratories, Inc., Maryland, USA) was used for colorimetric immunodetection of histidine-tagged CTN—0339 protein. […] One unit of the REase activity is defined as the quantity required to completely digest 1 μg of pUC19 DNA in 1 h at 77° C. […] One unit of the MTase activity is defined as the quantity required to completely protect 1 μg of pUC19 DNA from the cleavage of the REase for 1 h at 77° C. […]

In series [6] the test system is pUC19. The experiment in a line: Enzyme activity assay of M.TneDI prepared from DH1021 strains. It is filed as biochemical. How it is done: Cells from 10 ml of the induced DH1021 cultures were harvested by centrifugation and were resuspended in 150 μl of lysis buffer (10 mM Tris-HCl, 10 mM MgCl2, 50 mM NaCl, 1 mM DTT, pH 8.0). Lysozyme was added to a final concentration of 0.3 mg/ml. The cell suspension was subject to 3 freeze-thaw cycles to lyse the cells. Cell lysate was then heated at 77° C. for 30 min to denature host proteins. After centrifugation at 21,130 g for 5 min, the supernatant was recovered and used as M.TneDI preparations for activity assays. Such prepared M.TneDI can be stored at −20° C. in the presence of 10% (v/v) glycerol for more than 2 months.
Plasmid pUC19 extracted from a XL1-Blue MRF′ host was used as the substrate DNA (FIG. 10). Eight micrograms of pUC19 was incubated with 10 μl of the above prepared M.TneDI for 1 h at 77° C., supplemented with 20 μg/ml of S-adenosyl-L-methionine (AdoMet). The DNA was then subjected to restriction digestions of R.TneDI or other Type II REases recognizing CGCG sequence, such as BstUI. […] Based on the growth and the enzyme activity assays, DH10212-3 was identified as the best strain for production of M.TneDI.

On to `NC[C@H]1O[C@H](O[C@H]2[C@H](O)[C@@H](O[C@H]3O[C@H](CO)[C@@H](O)[C@H](N)[C@H]3O)[C@H](N)C[C@@H]2N)[C@H](O)[C@@H](O)[C@@H]1O` [kanamycin], for which the “kanamycin concentration that completely inhibited growth” value in series [1] (at least 72 h) worked out at 50 µg/mL. Also, the “kanamycin input needed for complete inhibition despite spontaneous mutations” value in series [1] (over a period of 72 h) came to 150 µg/mL. Besides, in series [2], the “kanamycin concentration at which spontaneous mutants rarely showed up” value was found to be 250 µg/mL.
For the molecule `C[S+](CC[C@H](N)C(=O)[O-])C[C@H]1O[C@@H](n2cnc3c(N)ncnc32)[C@H](O)[C@@H]1O` (stereo partly drawn) [AdoMet, S-adenosyl-L-methionine], the “original AdoMet found” value in series [3] (6 days) is given as about 70%; in series [3] (15 days) it was about 25%.

B1: R.TneDI: Type II restriction endonuclease of T. neapolitana encoded by CTN_0339, recognizing CGCG; SEQ ID NO: 13 (protein, listed as Thermotoga neapolitana)
chain: MRKTDPLIDIFKKNKERIDILGKAWDIFYFEGRAPDVGKRRENFIVEMIRKELSHFIKSVNQAPDTERNWDIEITFQDDSTKRYSIKTTEGFSDVKIAWDGFPTKDRILTFNFQADIFYIARNKDKIILCVIDLEKLRDLQREVEKNESKLEEYYSLPSSNTNPRGFGLKSSTVKRLIELSKKEENYLEIDYKPFPVELILKAKEEYFKGWYDLIKELIEKYQQ
Take B1: the “extract required to completely digest 1 μg of pUC19 DNA within 1 h” value is on record as 2.5 μl in series [4] (65° C. or 50° C.) and “half of the amount” in series [4] (77° C., relative to the amount at 65° C. or 50° C.). In addition, the entries for the “restriction activity retained on storage” value in series [4] (at least 12 weeks) and in series [4] (up to 5 weeks) were at least 50% and 100%, respectively.

B2: M.TneDI: methyltransferase of T. neapolitana encoded by CTN_0340, modifies CGCG sequences; SEQ ID NO: 14 (protein, listed as Thermotoga neapolitana)
chain: MKRRKSTRTSSFGVKGRESHDSSPFYSRAIYSNFSLPKPSEEDLIENPLPENLLDKVIEGDAREVLKKIPDCSIHLMVTSPPYNVGKEYDEDMTLDEYLEFIEEIMKEVYRVLVWGGRACFNVANLGRKPYIPLHAYLIHLFEKIGFLIRGEIIWDKGEAVSGSSTAWGSWMSPVNPVLRDQHEYIIVMSKGDLKRRKPSDREAKSTITREEFLEFTRSVWKFPPESAKRVGHPAPFPEELPYRCIQLYTFKGDVVLDPFAGVGTTCVAAVKTGRHFVGIEINPEYVKKAEERVKDILSKPTLFEDHC
With B2, the “digestion of treated pUC19 DNA by the REase” value in series [5] was “only partially digested”. Besides, in series [6] (10 μl preparation, 8 μg pUC19, 1 h at 77° C., 20 μg/ml AdoMet), the “protection of substrate DNA from R.TneDI or BstUI” value is given as “prevents substrate DNA from the degradation”. Also, the “storage time of M.TneDI preparation” value in series [6] (−20° C., 10% (v/v) glycerol) is listed as “more than 2 months”.
